How the values were obtained:
Test in all cases: BLI
[1] = target: N-terminally His-tagged GrgA, full length (Chlamydia trachomatis) (UniProt O84512)
[2] = target: NH-GrgAΔ1-64 (Chlamydia trachomatis) (UniProt O84512)
[3] = target: Biotinylated NH-GrgA (Chlamydia trachomatis) (UniProt O84512)
[4] = target: N-terminally poly-His-tagged C. trachomatis σ^28 (C. trachomatis)
CH-σ^66 = target: T1, CH-σ^66 (C. trachomatis, UniProt P18333 1-571)
T1 sequence (looked up): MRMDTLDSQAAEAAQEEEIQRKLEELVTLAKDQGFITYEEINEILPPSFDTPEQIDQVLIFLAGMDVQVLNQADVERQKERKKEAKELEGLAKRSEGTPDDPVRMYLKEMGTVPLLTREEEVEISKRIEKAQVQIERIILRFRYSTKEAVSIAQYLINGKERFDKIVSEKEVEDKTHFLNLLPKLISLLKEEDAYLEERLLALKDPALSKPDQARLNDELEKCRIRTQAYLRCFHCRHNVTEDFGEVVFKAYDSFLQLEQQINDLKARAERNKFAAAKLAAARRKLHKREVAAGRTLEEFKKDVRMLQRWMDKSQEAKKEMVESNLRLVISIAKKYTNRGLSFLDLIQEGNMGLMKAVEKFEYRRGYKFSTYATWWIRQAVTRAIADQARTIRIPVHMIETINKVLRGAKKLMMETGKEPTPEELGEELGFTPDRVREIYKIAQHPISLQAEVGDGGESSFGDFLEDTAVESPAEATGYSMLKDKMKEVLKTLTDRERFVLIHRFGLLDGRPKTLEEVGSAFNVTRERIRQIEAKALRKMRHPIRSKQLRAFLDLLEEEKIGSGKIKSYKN

[5] = target: T2, N-terminally His-tagged GrgA, full length (Chlamydia trachomatis, UniProt O84512 1-288)
T2 sequence (looked up): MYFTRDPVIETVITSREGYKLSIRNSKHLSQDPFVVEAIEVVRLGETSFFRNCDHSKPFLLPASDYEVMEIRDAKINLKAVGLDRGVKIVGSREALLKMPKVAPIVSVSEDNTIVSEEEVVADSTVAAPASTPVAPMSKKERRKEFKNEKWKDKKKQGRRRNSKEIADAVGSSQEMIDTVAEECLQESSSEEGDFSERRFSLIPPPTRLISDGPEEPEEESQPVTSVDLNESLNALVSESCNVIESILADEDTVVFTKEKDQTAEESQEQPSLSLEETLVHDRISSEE

N-terminally poly-His-tagged C. trachomatis σ^28 (C. trachomatis), sequence (B0B8K1 whole entry): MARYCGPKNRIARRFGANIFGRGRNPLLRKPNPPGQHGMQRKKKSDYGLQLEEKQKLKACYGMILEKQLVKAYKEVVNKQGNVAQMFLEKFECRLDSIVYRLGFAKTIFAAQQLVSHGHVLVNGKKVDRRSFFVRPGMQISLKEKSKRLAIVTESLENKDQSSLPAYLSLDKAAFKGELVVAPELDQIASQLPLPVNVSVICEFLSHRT

Molecule: N-terminally strep-tagged σ^28 (natural protein)
- fold higher KD than the NH-GrgA-CS-σ^66 interaction [1]: 32 fold
- fold decrease in ka against full length NH-GrgA [2]: 3 fold
- fold increase in KD against full length NH-GrgA [2]: 4.8 fold
- fold increase in kd against full length NH-GrgA [2]: 2 fold

Molecule: NH-σ^28ΔNL (domain or fragment)
- fold higher KD than full length NH-σ^28 [3]: 345 fold

Molecule: NH-σ^28ΔR2 (natural protein)
- fold higher KD than full length NH-σ^28 [3]: 177 fold
- fold reduction in ka against full length NH-σ^28 [3]: 2 fold

Molecule: NH-σ^28ΔR3 (natural protein)
- fold higher KD than full length NH-σ^28 [3]: 7 fold
- fold increase in ka against full length NH-σ^28 [3]: 3.5 fold

Molecule: NH-σ^28ΔR4 (natural protein)
- fold higher KD than full length NH-σ^28 [3]: 7 fold
- percent increase in ka against full length NH-σ^28 [3]: 50%

B1: N-terminally strep-tagged GrgA (natural protein, Chlamydia trachomatis, UniProt O84512 1-288, looked up)
chain: MYFTRDPVIETVITSREGYKLSIRNSKHLSQDPFVVEAIEVVRLGETSFFRNCDHSKPFLLPASDYEVMEIRDAKINLKAVGLDRGVKIVGSREALLKMPKVAPIVSVSEDNTIVSEEEVVADSTVAAPASTPVAPMSKKERRKEFKNEKWKDKKKQGRRRNSKEIADAVGSSQEMIDTVAEECLQESSSEEGDFSERRFSLIPPPTRLISDGPEEPEEESQPVTSVDLNESLNALVSESCNVIESILADEDTVVFTKEKDQTAEESQEQPSLSLEETLVHDRISSEE
- fold higher KD than the CH-σ^66-NS-GrgA interaction [4]: 28 fold
- fold higher ka than for NH-σ^28 as ligand (CH-σ^66): 3.7 fold
- fold slower dissociation (kd) than from NH-σ^28 (CH-σ^66): 6 fold

B2: CS-σ^66 (natural protein, C. trachomatis, UniProt P18333 1-571, looked up)
chain: MRMDTLDSQAAEAAQEEEIQRKLEELVTLAKDQGFITYEEINEILPPSFDTPEQIDQVLIFLAGMDVQVLNQADVERQKERKKEAKELEGLAKRSEGTPDDPVRMYLKEMGTVPLLTREEEVEISKRIEKAQVQIERIILRFRYSTKEAVSIAQYLINGKERFDKIVSEKEVEDKTHFLNLLPKLISLLKEEDAYLEERLLALKDPALSKPDQARLNDELEKCRIRTQAYLRCFHCRHNVTEDFGEVVFKAYDSFLQLEQQINDLKARAERNKFAAAKLAAARRKLHKREVAAGRTLEEFKKDVRMLQRWMDKSQEAKKEMVESNLRLVISIAKKYTNRGLSFLDLIQEGNMGLMKAVEKFEYRRGYKFSTYATWWIRQAVTRAIADQARTIRIPVHMIETINKVLRGAKKLMMETGKEPTPEELGEELGFTPDRVREIYKIAQHPISLQAEVGDGGESSFGDFLEDTAVESPAEATGYSMLKDKMKEVLKTLTDRERFVLIHRFGLLDGRPKTLEEVGSAFNVTRERIRQIEAKALRKMRHPIRSKQLRAFLDLLEEEKIGSGKIKSYKN
- fold higher ka than the NS-σ^28 analyte on NH-GrgA [5]: 25 fold
- fold increase in kd over the NS-σ^28 analyte on NH-GrgA [5]: 3 fold

— paper doi:10.1101/322701 (bioRxiv, 2018)
